# Test results reported in publication PMC2063866 (The Journal of Cell Biology, 2006).
# B1: Coiled-coil region of Abi1 (aa 6–124) (domain or fragment)
# chain: MLLEEEIPSGKRALIESYQNLTRVADYCENNYIQATDKRKALEETKAYTTQSLASVAYQINALANNVLQLLDIQASQLRRMESSINHISQTVDIHKEKVARREIGILTTNKNTSRTHKI
# Biological target: Recombinant full-length WAVE2 tagged with GST at its COOH terminus (UniProt Q9Y6W5 1-498)
# Assay: dual polarization interferometry
# Chain of Recombinant full-length WAVE2 tagged with GST at its COOH terminus (Q9Y6W5 whole entry): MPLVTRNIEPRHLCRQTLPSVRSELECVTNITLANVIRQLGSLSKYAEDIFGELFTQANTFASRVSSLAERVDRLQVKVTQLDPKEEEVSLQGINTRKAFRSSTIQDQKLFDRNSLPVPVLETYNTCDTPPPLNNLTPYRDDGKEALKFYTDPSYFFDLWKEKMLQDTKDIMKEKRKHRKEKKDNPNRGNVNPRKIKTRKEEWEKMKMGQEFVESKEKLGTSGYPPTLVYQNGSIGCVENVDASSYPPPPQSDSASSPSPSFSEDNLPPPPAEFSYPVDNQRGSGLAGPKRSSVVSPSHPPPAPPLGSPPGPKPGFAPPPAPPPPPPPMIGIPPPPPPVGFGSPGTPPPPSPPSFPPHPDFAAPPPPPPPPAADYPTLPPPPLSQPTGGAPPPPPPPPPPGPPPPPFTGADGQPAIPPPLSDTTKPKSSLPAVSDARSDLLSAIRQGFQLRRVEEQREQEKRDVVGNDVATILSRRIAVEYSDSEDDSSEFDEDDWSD
binder,measurement,value
B1,Kd,600 nM
